Measurements reported in the Immune Epitope Database (IEDB).

Legend:
HLA-A*02:01 [1] = assay: IEDB peptide-MHC binding, purified MHC/direct/fluorescence; filed as Kd, often an IC50 or EC50 that approximates it; ≥ and ≤ were set here for values at or beyond the usual limits of such assays
HLA-A*26:01 = assay: as above
HLA-B*58:01 = assay: as above
HLA-B*44:02 = assay: as above
HLA-B*27:05 = assay: as above
HLA-B*35:01 = assay: as above
HLA-A*01:01 = assay: as above
HLA-B*08:01 = assay: as above
HLA-A*03:01 = assay: as above
HLA-A*69:01 = assay: as above
HLA-A*11:01 [2] = assay: as above
HLA-B*40:01 = assay: as above
HLA-B*15:01 = assay: as above
HLA-B*07:02 = assay: as above
HLA-A*31:01 = assay: as above
HLA-B*46:01 [3] = assay: as above
HLA-A*26:02 = assay: as above
HLA-B*57:01 = assay: as above; conditions: source organism: Entamoeba histolytica
HLA-B*15:17 = assay: as above; conditions: source organism: Entamoeba histolytica
HLA-B*08:02 = assay: as above; conditions: source organism: Entamoeba histolytica
HLA-B*48:01 = assay: as above; conditions: source organism: Entamoeba histolytica
HLA-A*68:02 = assay: as above; conditions: source organism: Entamoeba histolytica
HLA-B*18:01 = assay: as above; conditions: source organism: Entamoeba histolytica
HLA-B*46:01 [4] = assay: IEDB peptide-MHC binding, purified MHC/competitive/fluorescence; filed as Kd, often an IC50 or EC50 that approximates it; ≥ and ≤ were set here for values at or beyond the usual limits of such assays; conditions: source organism: Yellow fever virus
HLA-A*30:01 = assay: IEDB peptide-MHC binding, purified MHC/direct/fluorescence; filed as Kd, often an IC50 or EC50 that approximates it; ≥ and ≤ were set here for values at or beyond the usual limits of such assays
HLA-A*23:01 = assay: IEDB peptide-MHC binding, purified MHC/competitive/fluorescence; filed as Kd, often an IC50 or EC50 that approximates it; ≥ and ≤ were set here for values at or beyond the usual limits of such assays; conditions: source organism: Vibrio cholerae 2740-80
HLA-A*24:03 = assay: IEDB peptide-MHC binding, purified MHC/direct/fluorescence; filed as Kd, often an IC50 or EC50 that approximates it; ≥ and ≤ were set here for values at or beyond the usual limits of such assays
HLA-A*11:01 [5] = assay: IEDB peptide-MHC binding, purified MHC/competitive/fluorescence; filed as Kd, often an IC50 or EC50 that approximates it; ≥ and ≤ were set here for values at or beyond the usual limits of such assays
HLA-B*51:01 = assay: IEDB peptide-MHC binding, purified MHC/direct/fluorescence; filed as Kd, often an IC50 or EC50 that approximates it; ≥ and ≤ were set here for values at or beyond the usual limits of such assays; conditions: source organism: Yellow fever virus 17D
HLA-C*14:02 = assay: as above; conditions: source organism: Yellow fever virus
HLA-C*15:02 = assay: as above; conditions: source organism: Yellow fever virus
HLA-A*02:01 [6] = assay: IEDB peptide-MHC binding, purified MHC/competitive/fluorescence; filed as Kd, often an IC50 or EC50 that approximates it; ≥ and ≤ were set here for values at or beyond the usual limits of such assays; conditions: source organism: Giardia lamblia ATCC 50803
HLA-A*02:11 = assay: as above; conditions: source organism: Giardia lamblia ATCC 50803
[7] = source organism: Salmonella enterica
[8] = source organism: Entamoeba histolytica
[9] = source organism: Yellow fever virus
[10] = source organism: Pseudomonas putida
[11] = source organism: Vibrio vulnificus
[12] = source organism: Giardia lamblia ATCC 50803
[13] = source organism: Orthohantavirus hantanense
[14] = source organism: Yellow fever virus 17D
[15] = source organism: Aggregatibacter actinomycetemcomitans
[16] = source organism: Vibrio cholerae

For AHSKAETEA, the Kd (HLA-A*02:01 [1]; [7]) was ≥ 20 µM, the Kd (HLA-A*26:01; [7]) was ≥ 20 µM and the Kd (HLA-B*58:01; [7]) was ≥ 20 µM. The Kd (HLA-B*44:02; [7]) was ≥ 20 µM, the Kd (HLA-B*27:05; [7]) was ≥ 20 µM and the Kd (HLA-B*35:01; source organism: Salmonella enterica subsp. enterica serovar Typhimurium) was ≥ 20 µM. The Kd (HLA-A*01:01; [7]) was ≥ 20 µM, the Kd (HLA-B*08:01; [7]) was ≥ 20 µM and the Kd (HLA-A*03:01; [7]) was ≥ 20 µM. For the same sequence, the Kd (HLA-A*69:01; [7]) was ≥ 20 µM, the Kd (HLA-A*11:01 [2]; [7]) was ≥ 20 µM and the Kd (HLA-B*40:01; [7]) was ≥ 20 µM. The Kd (HLA-B*15:01; [7]) was ≥ 20 µM, the Kd (HLA-B*07:02; [7]) was ≥ 20 µM and the Kd (HLA-A*31:01; [7]) was ≥ 20 µM.
DFGYATMAK was tested, and the Kd (HLA-A*02:01 [1]; [8]) was ≥ 20 µM, the Kd (HLA-B*46:01 [3]; [8]) was ≥ 20 µM and the Kd (HLA-A*26:01; [8]) was ≥ 20 µM. The Kd (HLA-B*58:01; [8]) was ≥ 20 µM, the Kd (HLA-A*26:02; [8]) was ≥ 20 µM and the Kd (HLA-B*27:05; [8]) was ≥ 20 µM. For the same sequence, the Kd (HLA-B*57:01) was ≥ 20 µM, the Kd (HLA-A*01:01; [8]) was ≥ 20 µM and the Kd (HLA-B*08:01; [8]) was ≥ 20 µM. For the same sequence, the Kd (HLA-A*03:01; [8]) was 1.6 µM, the Kd (HLA-B*15:17) was ≥ 20 µM and the Kd (HLA-B*08:02) was ≥ 20 µM. For the same sequence, the Kd (HLA-A*11:01 [2]; [8]) was 0.836 µM, the Kd (HLA-B*48:01) was ≥ 20 µM and the Kd (HLA-A*68:02) was ≥ 20 µM. For the same sequence, the Kd (HLA-B*40:01; [8]) was ≥ 20 µM, the Kd (HLA-B*15:01; [8]) was ≥ 20 µM and the Kd (HLA-B*07:02; [8]) was ≥ 20 µM. For the same sequence, the Kd (HLA-A*31:01; [8]) was ≥ 20 µM and the Kd (HLA-B*18:01) was ≥ 20 µM.
In the case of EAMDTISVF, the Kd (HLA-B*46:01 [4]) is reported as 0.53 µM and the Kd (HLA-A*26:02; [9]) is reported as ≤ 0.001 µM.
Sequence ETLETLLLL has a Kd (HLA-A*26:02; source organism: Dengue virus 2 Thailand/16681/84) of 0.055 µM.
With EYVGKTVWF the Kd (HLA-A*30:01; source organism: West Nile virus SPU116/89) was ≥ 20 µM.
Work on FVQGVIWNI yielded a Kd (HLA-A*23:01) of 0.0365 µM.
In the case of HTAEIQQFF, the Kd (HLA-A*26:01; [10]) is reported as 0.00541 µM, the Kd (HLA-B*35:01; [10]) is reported as 0.171 µM and the Kd (HLA-A*01:01; [10]) is reported as 0.67 µM. It also gave a Kd (HLA-A*69:01; [10]) of 0.0328 µM, a Kd (HLA-B*15:01; [10]) of 0.0906 µM and a Kd (HLA-A*31:01; [10]) of 1.15 µM.
For QSPQPVRVK, the Kd (HLA-A*02:01 [1]; [11]) was ≥ 20 µM, the Kd (HLA-A*26:01; [11]) was ≥ 20 µM and the Kd (HLA-B*58:01; [11]) was ≥ 20 µM. The Kd (HLA-A*24:03; [11]) was ≥ 20 µM, the Kd (HLA-B*27:05; [11]) was ≥ 20 µM and the Kd (HLA-A*01:01; [11]) was ≥ 20 µM. The Kd (HLA-B*08:01; [11]) was ≥ 20 µM, the Kd (HLA-A*03:01; [11]) was 19.3 µM and the Kd (HLA-A*69:01; [11]) was ≥ 20 µM. For the same sequence, the Kd (HLA-A*30:01; [11]) was 3.75 µM, the Kd (HLA-A*11:01 [2]; [11]) was 12.2 µM and the Kd (HLA-B*40:01; [11]) was ≥ 20 µM. For the same sequence, the Kd (HLA-B*15:01; [11]) was ≥ 20 µM and the Kd (HLA-B*07:02; [11]) was ≥ 20 µM.
QTSTLYDFY was tested, and the Kd (HLA-A*02:01 [1]; [12]) was ≥ 20 µM, the Kd (HLA-A*26:01; [12]) was ≥ 20 µM and the Kd (HLA-B*58:01; [12]) was 3.79 µM. The Kd (HLA-A*24:03; [12]) was ≥ 20 µM, the Kd (HLA-B*44:02; [12]) was ≥ 20 µM and the Kd (HLA-B*27:05; [12]) was ≥ 20 µM. The Kd (HLA-B*35:01; [12]) was 0.0286 µM, the Kd (HLA-A*01:01; [12]) was 0.0397 µM and the Kd (HLA-B*08:01; [12]) was ≥ 20 µM. The Kd (HLA-A*03:01; [12]) was ≥ 20 µM, the Kd (HLA-A*69:01; [12]) was ≥ 20 µM and the Kd (HLA-A*11:01 [2]; [12]) was ≥ 20 µM. The Kd (HLA-B*40:01; [12]) was ≥ 20 µM, the Kd (HLA-B*15:01; [12]) was 1.71 µM and the Kd (HLA-B*07:02; [12]) was ≥ 20 µM. The Kd (HLA-A*31:01; [12]) was ≥ 20 µM.
Sequence RLNLKTSFH has a Kd (HLA-A*03:01; [13]) of 0.407 µM, a Kd (HLA-A*30:01; source organism: Sapporo rat virus) of 0.1 µM and a Kd (HLA-A*11:01 [2]; [13]) of 1.35 µM.
For RTLASGLIY, the Kd (HLA-A*11:01 [5]; source organism: Yersinia pestis Nepal516) was 0.0673 µM.
In the case of RVLDCRTAF, the Kd (HLA-B*51:01) is reported as ≥ 20 µM, the Kd (HLA-C*14:02) is reported as 0.349 µM and the Kd (HLA-B*46:01 [3]; [14]) is reported as ≥ 20 µM. The Kd (HLA-B*35:01; [9]) was 0.324 µM, the Kd (HLA-C*15:02) was ≥ 20 µM and the Kd (HLA-B*15:01; [14]) was 0.108 µM.
For SGIDTNAYY, the Kd (HLA-A*26:01; source organism: West Nile virus) was ≥ 20 µM and the Kd (HLA-A*26:02; source organism: West Nile virus strain PTRoxo) was ≥ 20 µM.
For SLQECVKMA, the Kd (HLA-A*02:01 [6]) was 0.0007 µM and the Kd (HLA-A*02:11) was 0.0021 µM.
Sequence TLYCVHQR has a Kd (HLA-A*11:01 [5]; source organism: Human immunodeficiency virus 1) of 0.111 µM.
TTRAWFDKK was tested, and the Kd (HLA-A*02:01 [1]; [15]) was ≥ 20 µM, the Kd (HLA-A*26:01; [15]) was ≥ 20 µM and the Kd (HLA-B*58:01; [15]) was ≥ 20 µM. The Kd (HLA-A*24:03; [15]) was ≥ 20 µM, the Kd (HLA-B*27:05; [15]) was ≥ 20 µM and the Kd (HLA-A*01:01; [15]) was ≥ 20 µM. The Kd (HLA-B*08:01; [15]) was ≥ 20 µM, the Kd (HLA-A*03:01; [15]) was 2.99 µM and the Kd (HLA-A*69:01; [15]) was ≥ 20 µM. For the same sequence, the Kd (HLA-A*30:01; [15]) was 0.00023 µM, the Kd (HLA-A*11:01 [2]; [15]) was 0.127 µM and the Kd (HLA-B*40:01; [15]) was ≥ 20 µM. The Kd (HLA-B*15:01; [15]) was ≥ 20 µM, the Kd (HLA-B*07:02; [15]) was ≥ 20 µM and the Kd (HLA-A*31:01; [15]) was 0.0607 µM.
For WAGIWGGKL, the Kd (HLA-A*02:01 [1]; [16]) was ≥ 20 µM, the Kd (HLA-A*26:01; [16]) was ≥ 20 µM and the Kd (HLA-B*58:01; [16]) was ≥ 20 µM. The Kd (HLA-B*44:02; [16]) was ≥ 20 µM, the Kd (HLA-B*27:05; [16]) was ≥ 20 µM and the Kd (HLA-B*35:01; [16]) was 0.342 µM. For the same sequence, the Kd (HLA-A*01:01; [16]) was ≥ 20 µM, the Kd (HLA-B*08:01; [16]) was ≥ 20 µM and the Kd (HLA-A*03:01; [16]) was ≥ 20 µM. For the same sequence, the Kd (HLA-A*69:01; [16]) was 0.242 µM, the Kd (HLA-A*11:01 [2]; [16]) was ≥ 20 µM and the Kd (HLA-B*40:01; [16]) was ≥ 20 µM. For the same sequence, the Kd (HLA-B*15:01; [16]) was ≥ 20 µM, the Kd (HLA-B*07:02; [16]) was 13 µM and the Kd (HLA-A*31:01; [16]) was ≥ 20 µM.
